According to the supplement of paper PMC7877785:
± gives the uncertainty stated by the source.

Experiment: self-splicing fitness, log relative to wild type (ln ratio); higher = more splicing; Tetrahymena group I intron in knt gene, E. coli kanamycin selection, DiMSum; sequences stand for … in CUCUCU…GGAGGGAAAAGUUAUCAGGCAUGCACCUGGUAGCUAGUCUUUAAACCAAUAGAUUGCAUCGGUUUAAAAGGCAAGACCGUCAAAUUGCGGGAAAGGGGUCAACAGCCGUUCAGUACCAAGUCUCAGGGGAAACUUUGAGAUGGCCUUGCAAAGGGUAUGGUAAUAAGCUGACGGACAUGGUCCUAACCACGCAGCCAAGUCCUAAGUCAACAGAUCUUCUGUUGAUAUGGAUGCAGUUCACAGACUAAAUGUCGGUCGGGGAAGAUGUAUUCUUCUCAUAAGAUAUAGUCGGACCUCUCCUUAAUGGGAGCUAGCGGAUGAAGUGAUGCAACACUGGAGCCGCUGGGAACUAAUUUGUAUGCGAAAGUAUAUUGAUUAGUUUUGGAGUACUCGUGGUCG
Outline: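 Six replicate transformations of E. coli BL21(DE3) with a pET-22b(+) library were grown overnight at 37°C or 30°C. The library randomised all eight P1ex-region intron nucleotides, the intron lying in the knt kanamycin-resistance gene, and plates were LB agar with or without 25 μg/mL kanamycin plus 100 μg/mL carbenicillin, 50 μM IPTG and 0.2% rhamnose. Pooled colonies were amplicon-sequenced on an Illumina HiSeq 2500, and fitness is the DiMSum error-weighted combination of wild-type-normalised replicate fold changes, kanamycin versus none.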

Sequence	self-splicing fitness (ln) (30 °C)	self-splicing fitness (ln) (37 °C)
CAAUAGCAAUAUUACGAACC	-2.22 ± 0.35	–
CACCAGCAAUAUUACGGUCG	-1.28 ± 0.062	-0.351 ± 0.069
UCUAAGCAAUAUUACGAAAU	-3.53 ± 0.32	–
AUACAGCAAUAUUACGGAGA	-3.81 ± 0.33	-0.736 ± 0.27
AGGGAGCAAUAUUACGUUUC	–	-2.44 ± 0.24
UACAAGCAAUAUUACGACUG	-0.079 ± 0.063	0.278 ± 0.092
AGACAGCAAUAUUACGGUCC	-3.24 ± 0.27	-1.68 ± 0.28
UAUGAGCAAUAUUACGCACC	-1.68 ± 0.49	-0.807 ± 0.36
AAUUAGCAAUAUUACGUUGG	-3.34 ± 0.17	-2.56 ± 0.16
UAGCAGCAAUAUUACGAGCG	0.035 ± 0.078	0.235 ± 0.098
UCCUAGCAAUAUUACGAGUA	-1.12 ± 0.14	-0.911 ± 0.13
AAGUAGCAAUAUUACGCUAG	-1.57 ± 0.17	-1.04 ± 0.2
ACUGAGCAAUAUUACGGUCC	–	-2.26 ± 0.33
GAGCAGCAAUAUUACGCGUC	-3.39 ± 0.29	-2.8 ± 0.3
AGAAAGCAAUAUUACGUGAA	-2.39 ± 0.13	-1.96 ± 0.12
UAAAAGCAAUAUUACGUCUA	-0.487 ± 0.068	0.337 ± 0.097
UUGGAGCAAUAUUACGUUCG	-2.23 ± 0.16	-0.989 ± 0.17
UACAAGCAAUAUUACGGGGA	-1.5 ± 0.12	-1.09 ± 0.13
ACAUAGCAAUAUUACGCCGU	-2.02 ± 0.17	-1.23 ± 0.2
CGCCAGCAAUAUUACGUAAG	-0.207 ± 0.063	0.217 ± 0.074

Sequence	self-splicing fitness (ln) (30 °C)	self-splicing fitness (ln) (37 °C)
UGAAAGCAAUAUUACGAAGU	-3.76 ± 0.21	-2.96 ± 0.23
ACUCAGCAAUAUUACGGGCG	-0.574 ± 0.044	0.27 ± 0.062
GUAGAGCAAUAUUACGCCUG	-1.21 ± 0.31	-0.594 ± 0.32
GAGAAGCAAUAUUACGCAAA	-3.07 ± 0.14	-1.8 ± 0.15
AUAGAGCAAUAUUACGGAUU	-0.783 ± 0.091	-0.15 ± 0.14
CGUAAGCAAUAUUACGACUA	-2.29 ± 0.27	-1.96 ± 0.24
AGAAAGCAAUAUUACGACAC	-0.194 ± 0.11	-0.75 ± 0.13
CUCCAGCAAUAUUACGCAUA	–	-2.21 ± 0.29
AAGCAGCAAUAUUACGUAUC	-3.07 ± 0.1	-1.62 ± 0.12
CUCAAGCAAUAUUACGACAA	-2.86 ± 0.23	-1.89 ± 0.21
ACAUAGCAAUAUUACGGCUG	-0.175 ± 0.067	-0.366 ± 0.095
CCCCAGCAAUAUUACGAGAC	-3.9 ± 0.18	-2.37 ± 0.21
GAAGAGCAAUAUUACGAACU	-1.43 ± 0.15	-0.479 ± 0.17
CAAAAGCAAUAUUACGAGAC	-3.62 ± 0.39	-2.36 ± 0.21
ACGAAGCAAUAUUACGAUCC	-1.12 ± 0.1	-0.136 ± 0.14
GGAAAGCAAUAUUACGCACA	-0.416 ± 0.091	0.0226 ± 0.14
CCUUAGCAAUAUUACGGACG	-1 ± 0.13	-0.586 ± 0.17
CACAAGCAAUAUUACGAAUA	-2.08 ± 0.27	-2.71 ± 0.23
CAUGAGCAAUAUUACGCUCC	–	-1.38 ± 0.48
UUGAAGCAAUAUUACGCCCG	0.0378 ± 0.14	0.251 ± 0.21
